Laboratory results from publication doi:10.1101/207324.

Experiments:
human S100A5 (human) = target: T1, human S100A5 (human); experiment: ITC
T1 sequence (P33763 1-92, looked up): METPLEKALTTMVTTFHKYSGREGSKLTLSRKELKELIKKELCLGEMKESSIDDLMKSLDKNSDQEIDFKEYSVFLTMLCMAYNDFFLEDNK

human S100A6 (human) = experiment: ITC

Kd (human S100A5 (human)): > 100 µM
Kd (human S100A6 (human)): 20 µM
Substance: peptide from Siah-interacting protein (SIP) (from UniProt Q9HB71 188-218)
